# In patent US20170342144A1 (Sanofi, published 2017):
# Where a chain is given by its changes, count along the chain named.
# T1: human TGFβ2 (human, UniProt P61812 303-414)
# T1 construct: also called TGFβ2 homodimer
# T1 sequence: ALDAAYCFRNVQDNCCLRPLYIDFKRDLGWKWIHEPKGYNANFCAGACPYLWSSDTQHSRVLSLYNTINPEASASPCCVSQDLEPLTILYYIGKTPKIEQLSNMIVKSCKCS
# T2: human TGFβ3 (human, UniProt P10600 301-412)
# T2 sequence: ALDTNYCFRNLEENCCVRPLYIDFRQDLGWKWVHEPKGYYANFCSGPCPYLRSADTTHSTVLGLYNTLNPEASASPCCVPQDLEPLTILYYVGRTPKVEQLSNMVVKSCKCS
# B1: D56C (antibody, V domains shown)
# VH: QVQLVQSGAEVKKPGSSVKVSCKASGYTFSSNVISWVRQAPGQGLEWMGGVIPIVCIANYAQRFKGRVTITADESTSTTYMELSSLRSEDTAVYYCASTLGLVLDAMDYWGQGTLVTVSS
# VL: ETVLTQSPGTLSLSPGERATLSCRASQSLGSSYLAWYQQKPGQAPRLLIYGASSRAPGIPDRFSGSGSGTDFTLTISRLEPEDFAVYYCQQYADSPITFGQGTRLEIK
# notes: GC1008 IgG4 variant
# B2: D56N (antibody, V domains shown)
# VH: B1 VH with C56N
# VL: B1 VL
# notes: GC1008 IgG4 variant
# B3: E74P (antibody, V domains shown)
# VH: B1 VH with C56D, E74P
# VL: B1 VL
# notes: GC1008 IgG4 variant
# B4: E74H (antibody, V domains shown)
# VH: B1 VH with C56D, E74H
# VL: B1 VL
# notes: GC1008 IgG4 variant
# B5: S30H (antibody, V domains shown)
# VH: B1 VH with S30H, C56D
# VL: B1 VL
# notes: GC1008 IgG4 variant
# B6: E74G (antibody, V domains shown)
# VH: B1 VH with C56D, E74G
# VL: B1 VL
# notes: GC1008 IgG4 variant
# B7: E74S (antibody, V domains shown)
# VH: B1 VH with C56D, E74S
# VL: B1 VL
# notes: GC1008 IgG4 variant
# B8: E74A (antibody, V domains shown)
# VH: B1 VH with C56D, E74A
# VL: B1 VL
# notes: GC1008 IgG4 variant
# B9: D56I (antibody, V domains shown)
# VH: B1 VH with C56I
# VL: B1 VL
# notes: GC1008 IgG4 variant
# B10: S30A (antibody, V domains shown)
# VH: B1 VH with S30A, C56D
# VL: B1 VL
# notes: GC1008 IgG4 variant
# B11: E74Q (antibody, V domains shown)
# VH: B1 VH with C56D, E74Q
# VL: B1 VL
# notes: GC1008 IgG4 variant
# B12: E74Y (antibody, V domains shown)
# VH: B1 VH with C56D, E74Y
# VL: B1 VL
# notes: GC1008 IgG4 variant
# B13: D56K (antibody, V domains shown)
# VH: B1 VH with C56K
# VL: B1 VL
# notes: GC1008 IgG4 variant
# B14: D56F (antibody, V domains shown)
# VH: B1 VH with C56F
# VL: B1 VL
# notes: GC1008 IgG4 variant
# B15: D56G (antibody, V domains shown)
# VH: B1 VH with C56G
# VL: B1 VL
# notes: GC1008 IgG4 variant
# B16: D56L (antibody, V domains shown)
# VH: B1 VH with C56L
# VL: B1 VL
# notes: GC1008 IgG4 variant
# B17: E74D (antibody, V domains shown)
# VH: B1 VH with C56D, E74D
# VL: B1 VL
# notes: GC1008 IgG4 variant
# B18: D56H (antibody, V domains shown)
# VH: B1 VH with C56H
# VL: B1 VL
# notes: GC1008 IgG4 variant
# B19: D56E (antibody, V domains shown)
# VH: B1 VH with C56E
# VL: B1 VL
# notes: GC1008 IgG4 variant
# B20: D56Q (antibody, V domains shown)
# VH: B1 VH with C56Q
# VL: B1 VL
# notes: GC1008 IgG4 variant
# B21: E74T (antibody, V domains shown)
# VH: B1 VH with C56D, E74T
# VL: B1 VL
# notes: GC1008 IgG4 variant
# B22: V55W (antibody, V domains shown)
# VH: B1 VH with V55W, C56D
# VL: B1 VL
# notes: GC1008 IgG4 variant
# B23: I52P (antibody, V domains shown)
# VH: B1 VH with I52P, C56D
# VL: B1 VL
# notes: GC1008 IgG4 variant
# B24: I54G (antibody, V domains shown)
# VH: B1 VH with I54G, C56D
# VL: B1 VL
# notes: GC1008 IgG4 variant
# B25: D56P (antibody, V domains shown)
# VH: B1 VH with C56P
# VL: B1 VL
# notes: GC1008 IgG4 variant
# B26: S30K (antibody, V domains shown)
# VH: B1 VH with S30K, C56D
# VL: B1 VL
# notes: GC1008 IgG4 variant
# B27: I54Q (antibody, V domains shown)
# VH: B1 VH with I54Q, C56D
# VL: B1 VL
# notes: GC1008 IgG4 variant
# B28: V55A (antibody, V domains shown)
# VH: B1 VH with V55A, C56D
# VL: B1 VL
# notes: GC1008 IgG4 variant
# B29: I52T (antibody, V domains shown)
# VH: B1 VH with I52T, C56D
# VL: B1 VL
# notes: GC1008 IgG4 variant
# B30: I54Y (antibody, V domains shown)
# VH: B1 VH with I54Y, C56D
# VL: B1 VL
# notes: GC1008 IgG4 variant
# B31: I54S (antibody, V domains shown)
# VH: B1 VH with I54S, C56D
# VL: B1 VL
# notes: GC1008 IgG4 variant
# B32: V55M (antibody, V domains shown)
# VH: B1 VH with V55M, C56D
# VL: B1 VL
# notes: GC1008 IgG4 variant
# B33: V55L (antibody, V domains shown)
# VH: B1 VH with V55L, C56D
# VL: B1 VL
# notes: GC1008 IgG4 variant
# B34: V55I (antibody, V domains shown)
# VH: B1 VH with V55I, C56D
# VL: B1 VL
# notes: GC1008 IgG4 variant
# B35: I52F (antibody, V domains shown)
# VH: B1 VH with I52F, C56D
# VL: B1 VL
# notes: GC1008 IgG4 variant
# Biological target: T3, human TGFβ1 (human, UniProt P01137 279-390)
# T3 construct: also called TGFβ1 homodimer
# T3 sequence (P01137 279-390 limits assumed): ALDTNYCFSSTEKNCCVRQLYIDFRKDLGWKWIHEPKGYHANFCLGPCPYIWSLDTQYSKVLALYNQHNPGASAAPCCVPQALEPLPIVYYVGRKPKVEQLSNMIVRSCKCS
# Experiment: Biacore off-rate vs wt GC1008, 50 nM
# Description: (§1) Plasmids encoding either the GC1008 heavy chain or light chain were used as a template in PCR-based mutagenesis reactions. Mutations to the encoding DNA were made to create 155 single amino acid substitutions of the encoded heavy chain amino acid sequence and one single amino acid substitution of the encoded light chain amino acid sequence. A QuikChange® Lightning Site-Directed Mutagenesis kit (Agilent Technologies, Santa Clara Calif.) was used according to the manufacturer's instructions to create DNA mutations using a set of forward and reverse primers, either designed for a specific amino acid or for all 20 amino acids with a degenerate codon (NNK). After sequencing confirmation, identified mutant DNA was paired with a wild-type light or heavy chain DNA for transfection into an Expi293F™ host cell suspension (Life Techonologies Corp., Grand Island, N.Y.). At 4 days post-transfection, conditioned media (1 mL) was harvested and purified using a 1 mL Protein A PhyTip® column (PhyNexus, Inc., San Jose, Calif.) and a PureSpeed™ 12-channel pipette (Rainin Instrument LLC, Oakland, Calif.). Purified variant antibody samples were analyzed in duplicate on a Biacore® 3000 (GE Healthcare) at 50 nM concentrations, using the 100 RU level TGFβ1, 2, and 3 immobilized surfaces. The off-rate (kd) of the variants was divided by the kd of the wild-type control to obtain the fold change in the kd. […] A heat map was generated to visualize the results. Variants that completely lost affinity for TGFβ were shown in red without numbers.
row,kd var/kd wt,Binder
1,1.1,B1
2,1.2,B2
3,0.8,B3
4,0.9,B4
5,0.9,B5
6,1,B6
7,0.8,B7
8,1,B8
9,1.6,B9
10,0.7,B10
11,1.2,B11
12,0.7,B12
13,1.1,B13
14,2.3,B14
15,1.4,B15
16,1.3,B16
17,0.9,B17
18,1.1,B18
19,1,B19
20,1.1,B20
21,0.8,B21

# Biological target: T1, human TGFβ2
# Experiment: Biacore off-rate vs wt GC1008, 50 nM
# Description: as §1
row,kd var/kd wt,Binder
1,1.3,B1
2,1.4,B2
3,0.8,B5
4,0.7,B6
5,0.7,B7
6,1.5,B9
7,1.3,B22
8,1.9,B23
9,1.8,B24
10,1.9,B25
11,0.8,B11
12,1.5,B26
13,1.8,B27
14,1.3,B13
15,1.7,B28
16,1.9,B29
17,1.3,B30
18,1.5,B14
19,1.7,B31
20,1.5,B15
21,1.4,B16
22,1.7,B32
23,0.8,B17
24,1.3,B18
25,1.2,B19
26,1.3,B20
27,1.6,B33
28,1.7,B34
29,0.9,B21
30,1.9,B35

# Biological target: T2, human TGFβ3
# Experiment: Biacore off-rate vs wt GC1008, 50 nM
# Description: as §1
row,kd var/kd wt,Binder
1,0.8,B1
2,0.9,B2
3,1.4,B9
4,2.1,B22
5,1.6,B26
6,0.7,B13
7,2,B28
8,2.1,B29
9,1.5,B30
10,1.5,B14
11,1.1,B15
12,1,B16
13,0.7,B18
14,0.9,B19
15,1,B20
16,1.8,B33
17,1.8,B34
18,2,B35
